Experimental data reported in patent US20170298096A1 (CANIMGUIDE THERAPEUTICS, published 2017).
No end group written: not given here.

Target: T1, His-tagged P3028 (human, also: His-tag, terminus and sequence not given here)
T1 construct: in solution at 0.5 ug/mL over the peptide cards; found with anti-His-tag antibody and rabbit anti-mouse peroxidase (rampo); also called PGE73; not shown: His-tag
T1 peptide: VFDEFKPLVEEPQNLIK
Test: PEPSCAN chip ELISA, His-P3028 in solution;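 further: score is the raw OD at 405 nm from peroxidase colour with ABTS, imaged by CCD camera before and after staining, with wells showing air bubbles set to zero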

Binder	RAMPO Score [rampo score]
KKLDTFFVKLSLFTDR [SEQ ID NO 387]	404
KKLDTWFVKLSLFTER [SEQ ID NO 444]	348
KHLDTFFVKLSLFTER [SEQ ID NO 418]	394
KKLDTFWVKLSLFTER [SEQ ID NO 425]	380
KKLDTFFVKLSKFTER [SEQ ID NO 438]	355
KKLTTFFVKLSLFTER [SEQ ID NO 413]	405
KKLDVFFVKLSLFTER [SEQ ID NO 429]	374
KKLDTFFVKLVLFTER [SEQ ID NO 419]	392
KKLQTFFVKLSLFTER [SEQ ID NO 448]	345
KFLDTFFVKLSLFTER [SEQ ID NO 421]	390
KKLDTLFVKLSLFTER [SEQ ID NO 411]	408
KKLDTFFIKLSLFTER [SEQ ID NO 416]	401
KKLDTFFVKLSLFTEY [SEQ ID NO 393]	311
KKLDTSFVKLSLFTER [SEQ ID NO 401]	432
KKLFTFFVKLSLFTER [SEQ ID NO 426]	380
KKLMTFFVKLSLFTER [SEQ ID NO 423]	384
KQLDTFFVKLSLFTER [SEQ ID NO 440]	350
KKLDTQFVKLSLFTER [SEQ ID NO 410]	410
KKLDAFFVKLSLFTER [SEQ ID NO 447]	346
KKLDTFCVKLSLFTER [SEQ ID NO 409]	411
KKLDTFFVKLSFFTER [SEQ ID NO 422]	389
KRLDTFFVKLSLFTER [SEQ ID NO 407]	417
KPLDTFFVKLSLFTER [SEQ ID NO 405]	425
KKLDTFFVKLSLFTET [SEQ ID NO 392]	292

Binder	RAMPO Score [rampo score]
KKLDTFFVKLSLFTPR [SEQ ID NO 439]	351
KKLDTFFVTLSLFTER [SEQ ID NO 445]	347
KKLDTFEVKLSLFTER [SEQ ID NO 424]	381
KKLDTFPVKLSLFTER [SEQ ID NO 437]	356
KELDTFFVKLSLFTER [SEQ ID NO 441]	349
KKLDTFHVKLSLFTER [SEQ ID NO 433]	364
KKLDTFIVKLSLFTER [SEQ ID NO 397]	446
KKLDTGFVKLSLFTER [SEQ ID NO 446]	347
KKLDTFFVKLSLFTEK [SEQ ID NO 389]	291
KKLDTFAVKLSLFTER [SEQ ID NO 404]	426
KKLDHFFVKLSLFTER [SEQ ID NO 420]	391
KKLDTFFVKLYLFTER [SEQ ID NO 415]	402
KMLDTFFVKLSLFTER [SEQ ID NO 417]	400
KKLDTFFVKLSGFTER [SEQ ID NO 431]	370
KKLDTYFVKLSLFTER [SEQ ID NO 434]	364
KNLDTFFVKLSLFTER [SEQ ID NO 402]	432
KKPDTFFVKLSLFTER [SEQ ID NO 436]	361
KKLPTFFVKLSLFTER [SEQ ID NO 435]	364
KGLDTFFVKLSLFTER [SEQ ID NO 412]	405
KKLDTFNVKLSLFTER [SEQ ID NO 443]	348
KKLDTFFVKLSLFTEF [SEQ ID NO 388]	297
KKLDTFRVKLSLFTER [SEQ ID NO 432]	369
KKLDTFFVKLSLFTEN [SEQ ID NO 390]	311
